Patent US20240076386
Where a chain is given by its changes, count along the chain named.

B1: optimized anti-E-selectin antibody 1282 (protein)
chain 1: EVQLVESGGGLVQPGGSLRLSCAASGYAIRSAYMHWVRQAPGKGLEWVARIDPANGNTIYVDSVEGRFTISADNAKNSAYLQMNSLRAEDTAVYYCAMDLYSTSEYWGQGTLVTVSSASTKGPSVFPLAPSSKSTSGGTAALGCLVKDYFPEPVTVSWNSGALTSGVHTFPAVLQSSGLYSLSSVVTVPSSSLGTQTYICNVNHKPSNTKVDKKVEPKSCDKTHTCPPCPAPEAAGAPSVFLFPPKPKDTLMISRTPEVTCVVVDVSHEDPEVKFNWYVDGVEVHNAKTKPREEQYNSTYRVVSVLTVLHQDWLNGKEYKCKVSNKALPAPIEKTISKAKGQPREPQVYTLPPSREEMTKNQVSLTCLVKGFYPSDIAVEWESNGQPENNYKTTPPVLDSDGSFFLYSKLTVDKSRWQQGNVFSCSVMHEALHNHYTQKSLSLSPG
chain 2: DIQMTQSPSSLSASVGDRVTITCKTSQNIERYLNWYQQKPGKAPKLLIYAASSLQSGVPSRFSGSGSGTDFTLTISSLQPEDFATYFCLQDNAWPLTFGQGTKVEIKRTVAAPSVFIFPPSDEQLKSGTASVVCLLNNFYPREAKVQWKVDNALQSGNSQESVTEQDSKDSTYSLSSTLTLSKADYEKHKVYACEVTHQGLSSPVTKSFNRGEC
B2: optimized anti-E-selectin antibody 1284 (protein)
chain 1: B1 chain 1 with D62E
chain 2: B1 chain 2
B3: optimized anti-E-selectin antibody 1448 (protein)
chain 1: B1 chain 1 with E65K, G66E
chain 2: B1 chain 2
B4: optimized anti-E-selectin antibody 1444 (protein)
chain 1: B1 chain 1 with E65T
chain 2: B1 chain 2

Assay: AC-SINS self-interaction

AC-SINS (wavelength of maximum absorbance relative to blank, nm), 1 nm:
B1
B2
B3
B4
